Assay results published in publication PMC7457611 (bioRxiv, 2020).

B1: C119 IgG (antibody, V domains shown)
VH: QVQLVQSGAEVKKPGASVKVSCKASGYTFTSYYMHWVRQAPGQGLEWMGIINPSGGSTSYAQKLQGRVTMTRDTSTSTVYMELSSLRSEDTAVYYCARANHETTMDTYYYYYYMDVWGKGTTVTVSS
VL: QSALTQPASVSGSPGQSITISCTGTSSDVGGYKYVSWYQRHPGKAPKLMIYDVSNRPSGVSNRFSGSKSGNTASLTISGLQAEDEADYYCSSYTSSSTSVVFGGGTQLTVL
B2: C110 IgG (antibody, V domains shown)
VH: QVQLQQSGAEVKKPGESLKISCKGSGYSFTSYWIGWVRQMPGKGLEWMGIIYPGDSDTRYSPSFQGQVTISADKSISTAYMQWSSLKASDTAMYYCARSFRDDPRIAVAGPADAFDIWGQGTMVTVSS
VL: DIQMTQSPSTLSASVGDRVTITCRASQSISYWLAWYQQKPGKAPKLLIYQASSLESGVPSRFSGSESGTEFTLTISSLQPDDFATYYCQQYNSYPYTFGQGTKLEIK
B3: C104 IgG (antibody, V domains shown)
VH: QVQLQQWGAGLLKPSETLSLSCAVYGGSLSGYYWSWIRQPPGKGLEWIGEINHFGSTGYNPSLKSRVTISVDTSKSQFSVKLSSVTAADTAVYYCARKPLLYSNLSPGAFDIWGQGTMVTVSS
VL: EIVLTQSPGTVSLSPGERATLSCWASQSVSASYLAWYQQKPGQAPRLLIYGASSRATGIPDRFSGSGSGTDFTLTISRLEPEDFAVYYCQQYGTTPRTFGGGTKVEIK
B4: C121 IgG (antibody, V domains shown)
VH: not shown
VL: QSALTQPASVSGSPGQSITISCTGTSSDVGSYNLVSWYQQHPGKAPKLMIYEGSKRPSGVSNRFSGSKSGNTASLTISGLQAEDEADYYCCSYAGSSTLVFGGGTKLTVL
B5: C002 IgG (antibody, V domains shown)
VH: EVQLVESGGGVVQPGRSLRLSCAASGFTFSIYGMHWVRQAPGKGLEWVAVISYDGSNKYYADSVKGRFTISRDNSKNTLYLQMNSLRAEDTAVYYCAKEGRPSDIVVVVAFDYWGQGTLVTVSS
VL: not shown
B6: C105 IgG (antibody, V domains shown)
VH: QVQLVESGGGLIQPGGSLRLSCAASGFTVSSNYMSWVRQAPGKGLEWVSVIYSGGSTYYADSVKGRFTISRDNSKNTLYLQMNSLRAEDTAVYYCARGEGWELPYDYWGQGTLVTVSS
VL: QSALTQPPSASGSPGQSVTISCTGTSSDVGGYKYVSWYQQHPGKAPKLMIYEVSKRPSGVPDRFSGSKSGNTASLTVSGLQAEDEADYYCSSYEGSNNFVVFGGGTKLTVL

Target: SARS-CoV-2 spike receptor-binding domain (RBD), residues 331-524 (SARS-CoV-2, early isolate GenBank …, UniProt P0DTC2)
Experiment: SPR

Binder | binding result
B1 | binds
B2 | binds
B3 | binds
B4 | binds
B5 | binds
B6 | binds
